Laboratory results taken from doi:10.1101/2025.09.10.675349 (bioRxiv, 2025).
Positions count from the first letter of the chain named. Names may count otherwise.

B1: Staphylococcus aureus serine protease-like protein B (SplB), recombinant, catalytically active (enzyme, UniProt Q2FFT0 37-240, looked up)
chain: ENNVTKVKDTNIFPYTGVVAFKSATGFVVGKNTILTNKHVSKNYKVGDRITAHPNSDKGNGGIYSIKKIINYPGKEDVSVIQVEERAIERGPKGFNFNDNVTPFKYAAGAKAGERIKVIGYPHPYKNKYVLYESTGPVMSVEGSSIVYSAHTESGNSGSPVLNSNNELVGIHFASDVKNDDNRNAYGVYFTPEIKKFIAENIDK
B2: Catalytically inactive SplB mutant (S193A), recombinant (enzyme, UniProt Q2FFT0 37-240, looked up)
chain: B1 chain with S157A

Target: the molecule itself
Test: SEC

Protein	binding result
B1	binds
B2	binds
